Among the data in article PMC9541495, “Understanding the interaction of 14‐3‐3 proteins with hDMX and hDM2: a structural and biophysical study” (The Febs Journal, 2022) are Kd values, retold here.

[ ]: non-standard residue; d: D form. pS = N[C@@H](COP(=O)(O)O)C(=O)O; FAM = 5,6-carboxyfluorescein; Ahx = NCCCCCC(=O)O Where only a bound is given, the exact number is not on record here.

Holding throughout (experiment): fluorescence polarisation; fluorescence anisotropy, direct titration: 14-3-3 protein titrated (1/2 dilution series) against 50 nM FAM-Ahx tracer peptide; 10 mM HEPES, 150 mM NaCl, 0.1% Tween 20, 0.1% BSA, pH 7.4; 384 well plates, triplicates; protein concentration as 14-3-3 monomer; 1:1 fit, biphasic curves fitted as two separate 1:1 events (Kd1, Kd2)
Details in all cases: both partners purified

The target of one test is T1, 14‐3‐3β (human, UniProt P31946 1-246).
T1 construct: 14-3-3 beta, human, full-length protein from the pProEx HTb-His-14-3-3 construct; Written as the protomer; tag removal is told only for the ∆C proteins; source: E. coli BL21(DE3), purified (Ni2+-NTA, dialysis)
T1 sequence (looked up): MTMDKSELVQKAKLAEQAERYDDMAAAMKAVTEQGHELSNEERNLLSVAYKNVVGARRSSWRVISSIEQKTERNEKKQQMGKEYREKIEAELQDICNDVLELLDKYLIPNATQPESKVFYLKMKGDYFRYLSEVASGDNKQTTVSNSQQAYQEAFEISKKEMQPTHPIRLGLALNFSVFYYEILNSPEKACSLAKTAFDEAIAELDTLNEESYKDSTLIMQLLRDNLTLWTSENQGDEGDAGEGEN

The target in a further test is T2, 14‐3‐3τ (human, UniProt P27348 1-245).
T2 construct: 14-3-3 tau/theta, human, full-length protein from the pProEx HTb-His-14-3-3 construct; Written as the protomer; tag removal is told only for the ∆C proteins; also called τ/θ; source: E. coli BL21(DE3), purified (Ni2+-NTA, dialysis)
T2 sequence (looked up): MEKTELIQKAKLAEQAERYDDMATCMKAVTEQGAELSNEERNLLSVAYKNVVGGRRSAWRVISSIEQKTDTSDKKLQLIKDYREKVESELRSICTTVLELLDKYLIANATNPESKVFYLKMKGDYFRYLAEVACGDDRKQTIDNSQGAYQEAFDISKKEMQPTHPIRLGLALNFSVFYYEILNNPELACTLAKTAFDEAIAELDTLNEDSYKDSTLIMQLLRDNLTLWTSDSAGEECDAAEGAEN

The target of a further test is T3, 14‐3‐3γ (human, UniProt P61981 1-247).
T3 construct: 14-3-3 gamma, human, full-length protein from the pProEx HTb-His-14-3-3 construct; Written as the protomer; tag removal is told only for the ∆C proteins; source: E. coli BL21(DE3), purified (Ni2+-NTA, dialysis)
T3 sequence (looked up): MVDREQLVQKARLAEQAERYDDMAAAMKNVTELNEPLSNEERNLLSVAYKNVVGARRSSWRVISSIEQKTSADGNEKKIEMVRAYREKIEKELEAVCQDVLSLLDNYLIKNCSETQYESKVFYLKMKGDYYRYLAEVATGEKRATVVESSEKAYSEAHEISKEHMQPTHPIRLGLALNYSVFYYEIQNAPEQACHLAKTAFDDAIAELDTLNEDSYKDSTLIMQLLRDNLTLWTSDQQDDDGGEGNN

The target of a further test is T4, 14‐3‐3σ (human, UniProt P31947 1-248).
T4 construct: 14-3-3 sigma, human, full-length protein from the pProEx HTb-His-14-3-3 construct (used in the FA assays); Written as the protomer; tag removal is told only for the ∆C proteins; source: E. coli BL21(DE3), purified (Ni2+-NTA, dialysis)
T4 sequence (looked up): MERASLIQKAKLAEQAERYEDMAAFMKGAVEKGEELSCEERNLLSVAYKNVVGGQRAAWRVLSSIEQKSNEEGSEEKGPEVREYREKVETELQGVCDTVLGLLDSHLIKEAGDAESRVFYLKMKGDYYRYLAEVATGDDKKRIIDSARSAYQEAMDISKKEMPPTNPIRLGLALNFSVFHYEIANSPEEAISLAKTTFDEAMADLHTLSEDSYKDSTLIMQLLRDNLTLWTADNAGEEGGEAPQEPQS

In a further test the target is T5, 14‐3‐3ε (human, UniProt P62258 1-255).
T5 construct: 14-3-3 epsilon, human, full-length protein from the pProEx HTb-His-14-3-3 construct; Written as the protomer; tag removal is told only for the ∆C proteins; source: E. coli BL21(DE3), purified (Ni2+-NTA, dialysis)
T5 sequence (looked up): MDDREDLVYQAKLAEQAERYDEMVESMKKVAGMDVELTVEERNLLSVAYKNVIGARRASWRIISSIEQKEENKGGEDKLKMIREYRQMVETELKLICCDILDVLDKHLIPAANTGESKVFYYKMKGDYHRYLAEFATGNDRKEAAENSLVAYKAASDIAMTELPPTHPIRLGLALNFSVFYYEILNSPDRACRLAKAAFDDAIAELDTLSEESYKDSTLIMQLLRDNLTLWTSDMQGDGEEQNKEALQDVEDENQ

B1: FAM‐Ahx‐hDM2_(160‐171) ^pSer166 (peptide)
peptide: {FAM-Ahx}-SRRRAI[pS]ETEEN-NH2
notes: hDM2 (human double minute 2 protein), human, residues 160-171; Tracer form used in the FA assays; also called hDM2_(160‐171) ^Ser166; source: synthetic peptide (Fmoc SPPS, HPLC purified)
In the case of B1, the Kd in the test with 14‐3‐3β worked out at 11.1 ± 0.5 µM; with 14‐3‐3τ, 29.3 ± 2.4 µM; with 14‐3‐3γ, 3.9 ± 0.3 µM; with 14‐3‐3σ, 32.7 ± 1.4 µM; with 14‐3‐3ε, 23 ± 1.2 µM.

B2: FAM‐Ahx‐hDM2_(180‐192) ^pSer186 (peptide)
peptide: {FAM-Ahx}-QRKRHK[pS]DSISLS-NH2
notes: hDM2 (human double minute 2 protein), human, residues 180-192; Tracer form used in the FA assays; source: synthetic peptide (Fmoc SPPS, HPLC purified)
Take B2: the Kd was 208 ± 6.3 µM with 14‐3‐3β; above 250 µM with 14‐3‐3τ; 82.9 ± 2.1 µM with 14‐3‐3γ; above 170 µM with 14‐3‐3σ; above 260 µM with 14‐3‐3ε.

B3: FAM‐Ahx‐hDMX_(361‐374) ^pSer367 (peptide)
peptide: {FAM-Ahx}-DCRRTI[pS]APVVRPK-NH2
notes: Tracer form used in the FA assays; source: synthetic peptide (Fmoc SPPS, HPLC purified)
Take B3: the dissociation constant (Kd) amounted to 0.51 ± 0.02 µM with 14‐3‐3β; 1.2 ± 0.2 µM with 14‐3‐3τ; 0.53 ± 0.04 µM with 14‐3‐3γ; 3.6 ± 0.4 µM in the test with 14‐3‐3σ; 2.7 ± 0.2 µM with 14‐3‐3ε.

B4: FAM‐Ahx‐hDMX_(335‐349) ^pSer342 (peptide)
peptide: {FAM-Ahx}-SKLTHSL[pS]TSDITAI-NH2
notes: hDMX (human double minute 4 protein, hDM4), human, residues 335-349; Tracer form used in the FA assays; source: synthetic peptide (Fmoc SPPS, HPLC purified)
For the molecule B4, the dissociation constant (Kd) with 14‐3‐3β turned out to be 49.4 ± 11.5 µM; with 14‐3‐3τ, 108 ± 6 µM; with 14‐3‐3γ, 37.8 ± 0.7 µM; with 14‐3‐3σ, 136 ± 3.6 µM; with 14‐3‐3ε, 53.4 ± 2.9 µM.
